In paper PMC6847465 (Nucleic Acids Research, 2019):
Ends that are not written are not given here. * marks the point of attachment. Biotin = O=C1N[C@H]2[C@H](CS[C@H]2CCCCC(=O)*)N1

Biological target: GST–BRCA1–BRCT (UniProt P38398 1582-1863)
Assay: pull-down

Chain of GST–BRCA1–BRCT (P38398 1582-1863): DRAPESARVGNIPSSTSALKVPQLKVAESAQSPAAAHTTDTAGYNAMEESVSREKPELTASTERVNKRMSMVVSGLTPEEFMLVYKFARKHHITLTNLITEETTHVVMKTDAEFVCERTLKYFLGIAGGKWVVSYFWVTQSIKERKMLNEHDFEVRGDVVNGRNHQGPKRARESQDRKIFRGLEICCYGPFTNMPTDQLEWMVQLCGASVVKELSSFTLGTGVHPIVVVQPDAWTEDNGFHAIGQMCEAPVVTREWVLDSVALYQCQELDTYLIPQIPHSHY

binding result: binds
Binder: Biotin-KHDAIMDGASPDYVLV [biotinylated CSB peptide without S1276 phosphorylation]
